Square brackets hold non-standard residues; d marks the D form. Aib = CC(C)(N)C(=O)O
Assays:
[1] = biological target: human glucagon-like peptide 1 receptor (GLP-1R) (human, UniProt P43220); assay: cell-based or functional assay
[2] = biological target: T1, human GLP-2 receptor (hGLP2-R) (human, UniProt O95838); assay: cell-based or functional assay
T1 sequence: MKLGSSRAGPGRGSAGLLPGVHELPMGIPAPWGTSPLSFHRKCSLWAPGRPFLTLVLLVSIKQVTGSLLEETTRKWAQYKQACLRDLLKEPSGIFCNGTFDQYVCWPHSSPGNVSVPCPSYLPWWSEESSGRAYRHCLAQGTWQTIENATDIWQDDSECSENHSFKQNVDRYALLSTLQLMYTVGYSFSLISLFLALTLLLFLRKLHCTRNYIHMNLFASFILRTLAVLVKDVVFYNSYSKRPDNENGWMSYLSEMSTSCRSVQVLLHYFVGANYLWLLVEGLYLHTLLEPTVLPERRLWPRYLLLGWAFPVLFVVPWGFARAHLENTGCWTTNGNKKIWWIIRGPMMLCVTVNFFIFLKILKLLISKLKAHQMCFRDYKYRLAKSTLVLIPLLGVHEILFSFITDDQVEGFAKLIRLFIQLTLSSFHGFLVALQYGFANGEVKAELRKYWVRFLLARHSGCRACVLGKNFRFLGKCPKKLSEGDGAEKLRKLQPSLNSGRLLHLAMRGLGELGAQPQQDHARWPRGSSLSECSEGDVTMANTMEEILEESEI

B1: Compound 28 (peptide)
peptide: H-H[Aib]EGSFTSELATILDEQAARDFIAWLYAHKITD-OH
SMILES: CC[C@H](C)[C@H](NC(=O)[C@H](Cc1ccccc1)NC(=O)[C@H](CC(=O)O)NC(=O)[C@H](CCCNC(=N)N)NC(=O)[C@H](C)NC(=O)[C@H](C)NC(=O)[C@H](CCC(N)=O)NC(=O)[C@H](CCC(=O)O)NC(=O)[C@H](CC(=O)O)NC(=O)[C@H](CC(C)C)NC(=O)[C@@H](NC(=O)[C@@H](NC(=O)[C@H](C)NC(=O)[C@H](CC(C)C)NC(=O)[C@H](CCC(=O)O)NC(=O)[C@H](CO)NC(=O)[C@@H](NC(=O)[C@H](Cc1ccccc1)NC(=O)[C@H](CO)NC(=O)CNC(=O)[C@H](CCC(=O)O)NC(=O)C(C)(C)NC(=O)[C@@H](N)Cc1c[nH]cn1)[C@@H](C)O)[C@@H](C)O)[C@@H](C)CC)C(=O)N[C@@H](C)C(=O)N[C@@H](Cc1c[nH]c2ccccc12)C(=O)N[C@@H](CC(C)C)C(=O)N[C@@H](Cc1ccc(O)cc1)C(=O)N[C@@H](C)C(=O)N[C@@H](Cc1c[nH]cn1)C(=O)N[C@@H](CCCCN)C(=O)N[C@H](C(=O)N[C@H](C(=O)N[C@@H](CC(=O)O)C(=O)O)[C@@H](C)O)[C@@H](C)CC
[1]
  EC50 GLP-1 (nM); cAMP AlphaScreen: 0.11 nM
[2]
  EC50 GLP-2 (nM); cAMP AlphaScreen: 0.024 nM

B2: Compound 26 (peptide)
peptide: H-H[Aib]EGTFTSELATILDEQAARDFIAWLQAQKITD-OH
SMILES: CC[C@H](C)[C@H](NC(=O)[C@H](Cc1ccccc1)NC(=O)[C@H](CC(=O)O)NC(=O)[C@H](CCCNC(=N)N)NC(=O)[C@H](C)NC(=O)[C@H](C)NC(=O)[C@H](CCC(N)=O)NC(=O)[C@H](CCC(=O)O)NC(=O)[C@H](CC(=O)O)NC(=O)[C@H](CC(C)C)NC(=O)[C@@H](NC(=O)[C@@H](NC(=O)[C@H](C)NC(=O)[C@H](CC(C)C)NC(=O)[C@H](CCC(=O)O)NC(=O)[C@H](CO)NC(=O)[C@@H](NC(=O)[C@H](Cc1ccccc1)NC(=O)[C@@H](NC(=O)CNC(=O)[C@H](CCC(=O)O)NC(=O)C(C)(C)NC(=O)[C@@H](N)Cc1c[nH]cn1)[C@@H](C)O)[C@@H](C)O)[C@@H](C)O)[C@@H](C)CC)C(=O)N[C@@H](C)C(=O)N[C@@H](Cc1c[nH]c2ccccc12)C(=O)N[C@@H](CC(C)C)C(=O)N[C@@H](CCC(N)=O)C(=O)N[C@@H](C)C(=O)N[C@@H](CCC(N)=O)C(=O)N[C@@H](CCCCN)C(=O)N[C@H](C(=O)N[C@H](C(=O)N[C@@H](CC(=O)O)C(=O)O)[C@@H](C)O)[C@@H](C)CC
[1]
  EC50 GLP-1 (nM); cAMP AlphaScreen: 0.013 nM
[2]
  EC50 GLP-2 (nM); cAMP AlphaScreen: 0.19 nM

B3: Compound 1 (peptide)
peptide: H-H[Aib]EGSFTSELATILDEQAARDFIAWLIAHKITD-OH
SMILES: CC[C@H](C)[C@H](NC(=O)[C@H](CC(C)C)NC(=O)[C@H](Cc1c[nH]c2ccccc12)NC(=O)[C@H](C)NC(=O)[C@@H](NC(=O)[C@H](Cc1ccccc1)NC(=O)[C@H](CC(=O)O)NC(=O)[C@H](CCCNC(=N)N)NC(=O)[C@H](C)NC(=O)[C@H](C)NC(=O)[C@H](CCC(N)=O)NC(=O)[C@H](CCC(=O)O)NC(=O)[C@H](CC(=O)O)NC(=O)[C@H](CC(C)C)NC(=O)[C@@H](NC(=O)[C@@H](NC(=O)[C@H](C)NC(=O)[C@H](CC(C)C)NC(=O)[C@H](CCC(=O)O)NC(=O)[C@H](CO)NC(=O)[C@@H](NC(=O)[C@H](Cc1ccccc1)NC(=O)[C@H](CO)NC(=O)CNC(=O)[C@H](CCC(=O)O)NC(=O)C(C)(C)NC(=O)[C@@H](N)Cc1c[nH]cn1)[C@@H](C)O)[C@@H](C)O)[C@@H](C)CC)[C@@H](C)CC)C(=O)N[C@@H](C)C(=O)N[C@@H](Cc1c[nH]cn1)C(=O)N[C@@H](CCCCN)C(=O)N[C@H](C(=O)N[C@H](C(=O)N[C@@H](CC(=O)O)C(=O)O)[C@@H](C)O)[C@@H](C)CC
[1]
  EC50 GLP-1 (nM); cAMP AlphaScreen: 0.014 nM
[2]
  EC50 GLP-2 (nM); cAMP AlphaScreen: 0.036 nM

B4: Compound 24 (peptide)
peptide: H-H[Aib]EGSFTSELATILDEQAARDFIAWLQAHKITD-OH
SMILES: CC[C@H](C)[C@H](NC(=O)[C@H](Cc1ccccc1)NC(=O)[C@H](CC(=O)O)NC(=O)[C@H](CCCNC(=N)N)NC(=O)[C@H](C)NC(=O)[C@H](C)NC(=O)[C@H](CCC(N)=O)NC(=O)[C@H](CCC(=O)O)NC(=O)[C@H](CC(=O)O)NC(=O)[C@H](CC(C)C)NC(=O)[C@@H](NC(=O)[C@@H](NC(=O)[C@H](C)NC(=O)[C@H](CC(C)C)NC(=O)[C@H](CCC(=O)O)NC(=O)[C@H](CO)NC(=O)[C@@H](NC(=O)[C@H](Cc1ccccc1)NC(=O)[C@H](CO)NC(=O)CNC(=O)[C@H](CCC(=O)O)NC(=O)C(C)(C)NC(=O)[C@@H](N)Cc1c[nH]cn1)[C@@H](C)O)[C@@H](C)O)[C@@H](C)CC)C(=O)N[C@@H](C)C(=O)N[C@@H](Cc1c[nH]c2ccccc12)C(=O)N[C@@H](CC(C)C)C(=O)N[C@@H](CCC(N)=O)C(=O)N[C@@H](C)C(=O)N[C@@H](Cc1c[nH]cn1)C(=O)N[C@@H](CCCCN)C(=O)N[C@H](C(=O)N[C@H](C(=O)N[C@@H](CC(=O)O)C(=O)O)[C@@H](C)O)[C@@H](C)CC
[1]
  EC50 GLP-1 (nM); cAMP AlphaScreen: 0.042 nM
[2]
  EC50 GLP-2 (nM); cAMP AlphaScreen: 0.049 nM

B5: Compound 31 (peptide)
peptide: H-H[Aib]EGSFTSELATILDGKAARDFIAWLIAHKITD-OH
SMILES: CC[C@H](C)[C@H](NC(=O)[C@H](CC(C)C)NC(=O)[C@H](Cc1c[nH]c2ccccc12)NC(=O)[C@H](C)NC(=O)[C@@H](NC(=O)[C@H](Cc1ccccc1)NC(=O)[C@H](CC(=O)O)NC(=O)[C@H](CCCNC(=N)N)NC(=O)[C@H](C)NC(=O)[C@H](C)NC(=O)[C@H](CCCCN)NC(=O)CNC(=O)[C@H](CC(=O)O)NC(=O)[C@H](CC(C)C)NC(=O)[C@@H](NC(=O)[C@@H](NC(=O)[C@H](C)NC(=O)[C@H](CC(C)C)NC(=O)[C@H](CCC(=O)O)NC(=O)[C@H](CO)NC(=O)[C@@H](NC(=O)[C@H](Cc1ccccc1)NC(=O)[C@H](CO)NC(=O)CNC(=O)[C@H](CCC(=O)O)NC(=O)C(C)(C)NC(=O)[C@@H](N)Cc1c[nH]cn1)[C@@H](C)O)[C@@H](C)O)[C@@H](C)CC)[C@@H](C)CC)C(=O)N[C@@H](C)C(=O)N[C@@H](Cc1c[nH]cn1)C(=O)N[C@@H](CCCCN)C(=O)N[C@H](C(=O)N[C@H](C(=O)N[C@@H](CC(=O)O)C(=O)O)[C@@H](C)O)[C@@H](C)CC
[1]
  EC50 GLP-1 (nM); cAMP AlphaScreen: 0.02 nM
[2]
  EC50 GLP-2 (nM); cAMP AlphaScreen: 0.078 nM

B6: Compound 25 (peptide)
peptide: H-H[Aib]EGSFTSELATILDEQAARDFIAWLIAQKITD-OH
SMILES: CC[C@H](C)[C@H](NC(=O)[C@H](CC(C)C)NC(=O)[C@H](Cc1c[nH]c2ccccc12)NC(=O)[C@H](C)NC(=O)[C@@H](NC(=O)[C@H](Cc1ccccc1)NC(=O)[C@H](CC(=O)O)NC(=O)[C@H](CCCNC(=N)N)NC(=O)[C@H](C)NC(=O)[C@H](C)NC(=O)[C@H](CCC(N)=O)NC(=O)[C@H](CCC(=O)O)NC(=O)[C@H](CC(=O)O)NC(=O)[C@H](CC(C)C)NC(=O)[C@@H](NC(=O)[C@@H](NC(=O)[C@H](C)NC(=O)[C@H](CC(C)C)NC(=O)[C@H](CCC(=O)O)NC(=O)[C@H](CO)NC(=O)[C@@H](NC(=O)[C@H](Cc1ccccc1)NC(=O)[C@H](CO)NC(=O)CNC(=O)[C@H](CCC(=O)O)NC(=O)C(C)(C)NC(=O)[C@@H](N)Cc1c[nH]cn1)[C@@H](C)O)[C@@H](C)O)[C@@H](C)CC)[C@@H](C)CC)C(=O)N[C@@H](C)C(=O)N[C@@H](CCC(N)=O)C(=O)N[C@@H](CCCCN)C(=O)N[C@H](C(=O)N[C@H](C(=O)N[C@@H](CC(=O)O)C(=O)O)[C@@H](C)O)[C@@H](C)CC
[1]
  EC50 GLP-1 (nM); cAMP AlphaScreen: 0.008 nM
[2]
  EC50 GLP-2 (nM); cAMP AlphaScreen: 0.062 nM

## H-H[Aib]EGTFTSELSTILDEQAARDFIAWLHAQKITD-OH (not fully specified; printed as Hy-H[Aib]EGTFTSELSTILDEQAARDFIAWLHAQKITD-OH) [Compound 27]
[1]
  EC50 GLP-1 (nM); cAMP AlphaScreen: 0.12 nM
[2]
  EC50 GLP-2 (nM); cAMP AlphaScreen: 0.37 nM

## H-H[Aib]EGSFTSELATILDEQAARDFIAWLYRHKITD-OH (not fully specified; printed as Hy-H[Aib]EGSFTSELATILDEQAARDFIAWLYRHKITD-OH) [Compound 30]
[1]
  EC50 GLP-1 (nM); cAMP AlphaScreen: 0.1 nM
[2]
  EC50 GLP-2 (nM); cAMP AlphaScreen: 0.034 nM

## H-H[Aib]EGTFTDELATILDEQAARDFIAWLQAQKITD-OH (not fully specified; printed as Hy-H[Aib]EGTFTDELATILDEQAARDFIAWLQAQKITD-OH) [Compound 29]
[1]
  EC50 GLP-1 (nM); cAMP AlphaScreen: 0.044 nM
[2]
  EC50 GLP-2 (nM); cAMP AlphaScreen: 0.11 nM
